Drawing on patent US20130064834A1 (published 2013), this text covers Kd and T1/2 for one molecule.

Holding throughout (test): SPR, mAb captured on anti-hFc, 37C
(Surface plasmon resonance follows binding to a sensor surface in real time, without labels.)

Assay [1] has as its target T1, tagged rhesus monkey (Macaca mulata) PCSK9 (rhesus monkey (Macaca mulata), UniProt A8T666 31-692).
T1 construct: also called mmPCSK9-mmh; mmPCSK9

For assay [2], the target named is T2, his-tagged Syrian golden hamster (Mesocricetus auratus) PCSK9 (Syrian golden hamster (Mesocricetus …)).
T2 construct: also called maPCSK9-h; maPCSK9
T2 chain: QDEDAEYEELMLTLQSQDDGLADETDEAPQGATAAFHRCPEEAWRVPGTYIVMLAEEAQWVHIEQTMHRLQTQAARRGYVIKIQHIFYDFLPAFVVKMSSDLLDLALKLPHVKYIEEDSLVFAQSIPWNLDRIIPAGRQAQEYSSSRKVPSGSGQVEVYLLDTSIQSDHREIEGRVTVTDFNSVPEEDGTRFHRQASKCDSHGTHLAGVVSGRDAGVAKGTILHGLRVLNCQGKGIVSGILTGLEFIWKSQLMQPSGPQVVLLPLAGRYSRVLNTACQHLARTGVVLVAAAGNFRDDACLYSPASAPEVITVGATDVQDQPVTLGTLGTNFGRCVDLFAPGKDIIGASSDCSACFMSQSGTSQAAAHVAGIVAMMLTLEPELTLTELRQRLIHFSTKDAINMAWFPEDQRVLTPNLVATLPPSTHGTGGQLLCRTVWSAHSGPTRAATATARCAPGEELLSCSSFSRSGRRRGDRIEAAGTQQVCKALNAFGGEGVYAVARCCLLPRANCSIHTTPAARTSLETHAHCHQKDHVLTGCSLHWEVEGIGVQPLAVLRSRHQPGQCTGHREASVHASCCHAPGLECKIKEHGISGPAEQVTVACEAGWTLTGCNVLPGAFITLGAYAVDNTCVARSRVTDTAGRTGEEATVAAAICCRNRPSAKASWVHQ

The target in assay [3] is T3, Human PCSK9-myc-myc-his (human, UniProt Q8NBP7 31-692).
T3 construct: also called hPCSK9-mmh; hPCSK9

T1 sequence (A8T666 31-692 limits assumed): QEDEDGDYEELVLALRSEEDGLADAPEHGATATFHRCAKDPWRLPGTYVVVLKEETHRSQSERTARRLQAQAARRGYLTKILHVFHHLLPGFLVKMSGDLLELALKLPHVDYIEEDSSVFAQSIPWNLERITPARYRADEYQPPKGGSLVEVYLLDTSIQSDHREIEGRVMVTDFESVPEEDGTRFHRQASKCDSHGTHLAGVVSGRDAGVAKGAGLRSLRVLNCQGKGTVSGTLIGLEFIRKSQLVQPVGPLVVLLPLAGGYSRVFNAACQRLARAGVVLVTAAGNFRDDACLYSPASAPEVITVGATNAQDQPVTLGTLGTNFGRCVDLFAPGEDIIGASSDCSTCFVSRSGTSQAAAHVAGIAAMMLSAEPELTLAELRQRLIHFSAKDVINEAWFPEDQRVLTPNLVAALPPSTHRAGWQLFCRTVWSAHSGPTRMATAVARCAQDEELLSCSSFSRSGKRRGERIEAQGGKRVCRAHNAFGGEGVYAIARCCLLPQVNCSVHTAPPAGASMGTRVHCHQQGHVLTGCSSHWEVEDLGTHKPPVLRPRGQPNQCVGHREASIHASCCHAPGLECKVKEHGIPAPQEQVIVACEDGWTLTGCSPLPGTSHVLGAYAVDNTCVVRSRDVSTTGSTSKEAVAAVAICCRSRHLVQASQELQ

B1: H1H316P (antibody, V domains shown)
VH: EVQLVESGGGLVQPGGSLRLSCAASGFTFNNYAMNWVRQAPGKGLDWVSTISGSGGTTNYADSVKGRFIISRDSSKHTLYLQMNSLRAEDTAVYYCAKDSNWGNFDLWGRGTLVTVSS
VL: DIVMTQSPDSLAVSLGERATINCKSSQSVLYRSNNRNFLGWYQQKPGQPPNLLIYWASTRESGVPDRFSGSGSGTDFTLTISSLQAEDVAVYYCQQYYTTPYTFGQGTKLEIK
notes: Fully human mAb made in CHO cells; also called mAb316P
In general, Kd refers to the concentration at which binding is half-saturated. As to B1, the Kd in assay [1] was found to be 1.8 nM; in assay [2], 19 nM; in assay [3], 1.8 nM. For the same molecule, the T1/2 turned out to be 21 min in assay [1], 1 min in assay [2] and 9 min in assay [3].
